Key:
[1] = biological target: T1, FC5DIE3IR recombinant protein; assay: phage ELISA, phage supernatant on coated FC5DIE3IR or PBS wells, anti-M13-HRP, TMB
T1 construct: Made in CHO-3E7 cells; also called FC5DIE31R; FC5DIE3R
Description: FIG. 25A Phages were rescued from individual colonies, selected from the fourth round of panning and grown overnight at 37° C. Wells of a Nunc microtiter plate were coated with FC5DIE3IR and FC5 proteins at 5 μg/ml in PBS. […] Binding was detected with TMB substrate and A450 was measured using an ELISA plate reader.
Additional rounds (up to 3) of panning were performed by coating the ELISA plate with the same proteins and using the amplified phages after each round of panning as described above. After four rounds of panning, 77 randomly picked colonies were grown and subjected to monoclonal phage ELISA screening as described previously (Arbabi-Ghahroudi et al., 2009) except that 5 μg/ml of FC5DIE3IR and FC5 VHH (the negative control) were coated onto a microtiter plate. All positive clones specifically binding to FC5DIE3IR were sequenced and unique VHH sequences were selected for sub-cloning, large-scale expression, and purification.

human Nav1.7 polypeptide = human Nav1.7 polypeptide (human, UniProt Q15858 1-1988); assay: cell-based or functional assay
VHH FC5 [2] = biological target: T2, VHH FC5; assay: SPR, single cycle kinetics, Fc-captured mAb, FC5 flowed, 25 C
T2 construct: put together from its FR and CDR entries; also called FC5-VHH; FC5 control
T2 sequence (VHH, as listed by the source): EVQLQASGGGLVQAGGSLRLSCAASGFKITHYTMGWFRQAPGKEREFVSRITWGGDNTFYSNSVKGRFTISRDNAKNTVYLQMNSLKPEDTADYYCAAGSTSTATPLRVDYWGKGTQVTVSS
Description: HBS-EP running buffer used for SPR experiments. […] Test binding experiments of FC5 control and FC5DIE3IR involved flowing 1 μM concentrations of SEC-pure material over the mAb surface at a flow rate of 30 μl/min for 5 min. Surfaces could be regenerated using 10 mM glycine, pH 1.7, with a 120 sec pulse at 20 μl/min. All SPR experiments were evaluated with Biacore T200 Software v 3.0. […] Regeneration conditions were the same as above. Data were fit to a 1:1 binding model and analyzed using the Biacore T200 Software v3.0.

VHH FC5 [3] = biological target: T2, VHH FC5; assay: ELISA, hybridoma supernatant on coated purified FC5-VHH
Description: (§1) Screening. Hybridoma supernatants were screened by ELISA to detect specific binders. To this end, 96-well half-area plates (Costar #3690) were coated with 25 μl of FC5DIE3IR or FC5-VHH or FC5-hFc-1X0 at 5 μg/ml in PBS and incubated overnight at 4° C. Microplates were washed 3 times with PBS, blocked with PBS-BSA 1%, and 25 μl of hybridoma supernatants were added and incubated at 37° C., 5% CO₂ for 2 hours. […] After 4 washes with PBS-Tween 20 0.05%, 25 μl of a 1 mg/ml pNPP substrate solution was added and further incubated for one hour at 37° C.

[4] = biological target: T1, FC5DIE3IR recombinant protein; assay: ELISA on coated FC5DIE3IR, serial dilutions of purified mAb; fit One site - Specific binding with Hill slope
Description: as §1
(§2) Evaluation of apparent affinity in ELISA. Purified antibodies were assessed for their binding activity by ELISA in a dose-dependent binding curve. Serial 1/3 dilutions of purified mAbs starting at 120 nM were applied onto wells and ELISA was performed as described above (screening section). The data were analyzed with GraphPad Prism software using one-site specific binding-with Hill slope non-linear regression curve fit model to determine Bₘₐₓ (maximum specific binding) and Kdₐₚₚ (concentration needed to achieve a half-maximum binding at equilibrium) for each mAb tested.

peptide #2b (20 aa) = biological target: T3, peptide #2b (20 aa) (human); assay: ELISA on coated P2b, mAb at the dilutions 1:1000, 1:5000 and 1:10000, Abs 450nm
T3 construct: Custom-synthesized (Biomatik); also called pep #2b; P2b
T3 peptide: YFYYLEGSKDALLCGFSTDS
Description: (§3) The peptides were custom-synthesized (Biomatik) and tested for antibody binding by ELISA. […] The wells were blocked with 1% BSA in TBS-T for 30 min and then incubated with 1:1000 dilution of anti-hNaᵥ1.7 mAb at room temperature (RT) for one hr.

peptide #2 (30 aa) = biological target: T4, peptide #2 (30 aa) (human); assay: ELISA on coated peptide or FC5DIE3IR, mAb detected with HRP anti-mouse Fc, Abs 450nm
T4 construct: Custom-synthesized (Biomatik); also called pep #2; P2
T4 peptide: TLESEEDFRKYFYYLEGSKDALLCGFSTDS
Description: as §3

peptide #3 (30 aa) = biological target: T5, peptide #3 (30 aa) (human); assay: as above
T5 construct: Custom-synthesized (Biomatik); also called pep #3; P3
T5 sequence (peptide, as listed by the source): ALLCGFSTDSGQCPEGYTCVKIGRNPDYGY
Description: as §3

peptide #40a (40 aa) = biological target: T6, peptide #40a (40 aa) (human); assay: as above
T6 construct: Custom-synthesized (Biomatik); also called pep #40a; P40a
T6 peptide: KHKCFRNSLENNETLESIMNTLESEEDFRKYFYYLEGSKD
Description: as §3

[5] = biological target: T1, FC5DIE3IR recombinant protein; assay: ELISA on coated FC5DIE3IR, serial dilutions of purified mAb, OD 405 nm; fit One site - Specific binding with Hill slope; apparent Kd in the unit of the concentration axis (nM), the table itself prints no unit
Description: as §1, §2

peptide #2a (20 aa) = biological target: T7, peptide #2a (20 aa) (human); assay: ELISA on coated P2a, mAb at the dilutions 1:1000, 1:5000 and 1:10000, Abs 450nm
T7 construct: Custom-synthesized (Biomatik); also called pep #2a; P2a
T7 peptide: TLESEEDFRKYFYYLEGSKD
Description: as §3

[6] = biological target: T1, FC5DIE3IR recombinant protein; assay: SPR (Biacore T200), VHH flowed over immobilized FC5DIE3IR, steady state fit, 25 C
Source text: (§4) Surface Plasmon Resonance for VHH antibodies. […] Monomeric VHH fractions were collected and protein concentration determined by measuring A280 measurement. Using a Biacore T200 instrument (GE Healthcare), approximately 500-1000 RUs of FC5DIE3IR, FC5 and an irrelevant VHH (2A3-H4) were immobilized on a CM5 Series S sensor chip (GE Healthcare) at pH 4.0 using standard amine coupling according to the manufacturer's instructions (GE Healthcare). […] Surfaces were regenerated by washing with a 120 s pulse of 10 mM glycine pH 1.5. Data were analyzed with Biacore T200 Software v 3.0 and affinities determined using steady state binding or a 1:1 binding model.
(§5) Surface Plasmon Resonance (SPR).

VHH FC5 [7] = biological target: T2, VHH FC5; assay: phage ELISA of immune-library colonies, phage supernatant on coated FC5DIE3IR or FC5, anti-M13-HRP, TMB
VHH FC5 [8] = biological target: T2, VHH FC5; assay: as above; remark: listed apart in the source
[9] = biological target: T1, FC5DIE3IR recombinant protein; assay: SPR (Biacore T200), single cycle kinetics, VHH flowed over immobilized FC5DIE3IR, 25 C
Source text: as §4, §5

B1: VHH DI-A (VHH)
VHH: QVQLVESGGGLVQPGGSLRLSCAASGRTISSFTMGWFRQAPGAEREFVAAISRSGSSTVYAGSVKGRFTISRDNAKNTVYLQMNSLKPEDTAVYYCNAVITEPLYKTDDSYWGQGTQVTVSS
notes: From the naive LAC-M library; soluble tagged monomer in protein ELISA and patch clamp; also called clone A; not shown: 6xHis and c-Myc tags on the soluble monomer
- binding result [1]: binds
- reduction of the amplitude of the Nav1.7 currents at 1 µM (human Nav1.7 polypeptide): 2.73%

B2: VHH DI-B (VHH)
VHH: QVKLEESGGGLVPPGESLRLTCAATGQTASVYEMAWFRRAPEKEQVYVASINWRDGDTQYHNSVKGRFIISRDNAKNTVFLQMNSLTPEDTAIYYCAARKELAGYDYWGQGTQVTVSS
notes: From the naive LAC-M library; soluble tagged monomer in protein ELISA and patch clamp; also called clone B; not shown: 6xHis and c-Myc tags on the soluble monomer
- binding result [1]: binds
- reduction of the amplitude of the Nav1.7 currents at 1 µM (human Nav1.7 polypeptide): 1.73%

B3: VHH DI-C (VHH)
VHH: QVKLEESGGGLVQPGESLRLSCVGSGFNFRIQAMAWFRQAPGKEREFVASISGSGATTDHADSVKGRFAISKDNARDTMYLQMNNLKPEDTAVYYCYAISQHVPPYHYWGQGTQVTVSS
notes: From the naive LAC-M library; soluble tagged monomer in protein ELISA and patch clamp; also called clone C; not shown: 6xHis and c-Myc tags on the soluble monomer
- binding result [1]: binds
- reduction of the amplitude of the Nav1.7 currents at 1 µM (human Nav1.7 polypeptide): 0.46%

B4: VHH DI-H (VHH)
VHH: QVKLEESGGGLVQAGESLRLSCVNSGSTFSIYAMGWYRQAPGKQRELVAAISSVGRTNYADSVKGRFTISRAGAKNTVYLHMNNLKPEDTAVYSCITYYQNAMYFGQGTQVTVSS
notes: From the naive LAC-M library; soluble tagged monomer in protein ELISA and patch clamp; also called clone H; not shown: 6xHis and c-Myc tags on the soluble monomer
- binding result [1]: binds
- reduction of the amplitude of the Nav1.7 currents at 1 µM (human Nav1.7 polypeptide): 1.72%

B5: anti-hNav1.7 mAb 1B6 (antibody, V domains shown)
VH: QVQLKESGPGLVAPSQSLSITCTVSGFSLSRYNVHWVRQPPGKGLEWLGMIWGGGSTDYNSALKSRLSISKDNSKSQVFLKMNSLQTDDTAMYYCARNGANWDWFAYWGQGTLVTVSA
VL: not shown
notes: also called IB6; F236-1B6
- binding result (VHH FC5 [2]): no binding
- ELISA signal (OD 405 nm) (VHH FC5 [3]): 0.028 OD 405 nm
- Bmax [4]: 1.07 OD405 nm
- binding result (peptide #2b (20 aa)): no binding (tested: 1:1000 dilution)
- binding result (peptide #2 (30 aa)): binds
- binding result (peptide #3 (30 aa)): no binding
- binding result (peptide #40a (40 aa)): binds
- Kd [5]: 1.33 nM
- binding result (peptide #2a (20 aa)): no binding (tested: 1:1000 dilution)

B6: anti-hNav1.7 mAb 1H5 (antibody, V domains shown)
VH: EVKLVESGGGLVKPGGSLKLSCAASGFTFRSYAMSWVRQTPEKGLEWVASISSGGSTYYPDSVKGRFTISRDNAGNILYLQMSSLRSEDTAMYYCARGYDGYYERIWYYAMDYWGQGTSVTVSS
VL: DIVMTQSQKFMSTSVGDRVTVSCKASQNVGTIVAWYQQKPGQSPKALIYSASYRFSGVPDRFTGSGSGTDFTLTISNVQSEDLAEYFCQQYNTYPLTFGSGTKLEIK
- binding result (VHH FC5 [2]): no binding
- ELISA signal (OD 405 nm) (VHH FC5 [3]): 0.042 OD 405 nm
- Bmax [4]: 0.583 OD405 nm
- binding result (peptide #3 (30 aa)): binds
- binding result (peptide #40a (40 aa)): binds
- Kd [5]: 1.6 nM

B7: VHH DI-E (VHH)
VHH: QVKLEESGGGLVQPGGSLRLSCAASEFTFSSSWGHWVRQAPGKGLKWVSSINSGGEGTYYADSVKGRFTISRDNGKNTLYLEMNSLKSEDTAVYYCTSASGAWGQGIQVTVSS
notes: From the naive LAC-M library; also called clone E; not shown: 6xHis and c-Myc tags on the soluble monomer
- binding result [1]: binds

B8: VHH DI-4 (VHH)
VHH: QVQLVESGGGLVQPGGSLRLSCAASGFTFSNYWMYWVRQAPGKGLERVSSIYISGGNTYYADSVKGRFTISRDNAKNTLYLQMNSLKSEDTAVYYCVKGDTFGGMDYWGKGTQVTVSS
notes: From the FC5DIE3IR llama immune library; soluble tagged monomer in SPR; not shown: cmyc and His6 tags at the C-terminus
- Kd [6]: 2250 nM
- binding result (VHH FC5 [7]): no binding

B9: VHH DI-28 (VHH)
VHH: QVQLVESGGGLVQAGGSLRLSCAASGRTFSSSGMGWFRQAPGKDRELVAGISWSGDSAYYANSVAGRFTISRDNINNTVYLQMNSLKPEDTAVYYCAARQGGRNYATSPREYDYWGQGTQVTVSS
notes: as for B8
- binding result (VHH FC5 [8]): no binding
- Kd [9]: 4.44 nM
- koff [9]: 0.00205 s⁻¹
- kon [9]: 461000 M⁻¹ s⁻¹

From patent US20210206842A1 (NATIONAL RESEARCH COUNCIL OF CANADA, published 2021)
